Reference: article PMC7289862, “Real-time tracking reveals catalytic roles for the two DNA binding sites of Rad51” (Nature Communications, 2019)

Assays:
[1] = target: T1, Swi5-Sfr1 complex (UniProt Q9UUB7 1-85; Q9USV1 1-299); assay: co-IP; purified Rad51 (2.5 uM) and Swi5-Sfr1 (2.5 uM) mixed in 30 mM Tris-HCl pH 7.5, 20 mM KCl, 3 mM MgCl2, 1 mM DTT, 5% glycerol, 0.05% NP-40, 30 min at 4 °C; precipitated with rabbit anti-Rad51 antibody and protein G magnetic beads; western blots for Rad51, Sfr1 and Swi5; details: both partners purified
T1 construct: Swi5, subunit of the Swi5-Sfr1 complex; Sfr1, subunit of the Swi5-Sfr1 complex; Over-expressed and purified as a preformed complex; detected in the co-IP by blots for Sfr1 and Swi5; No tag is mentioned; also called Swi5-Sfr1 auxiliary factor; source: E. coli BL21-Codonplus(DE3) RIPL, purified as a complex (ammonium sulfate, Q Sepharose, HiTrap Heparin, Superdex 200)
T1 sequence (looked up) 1: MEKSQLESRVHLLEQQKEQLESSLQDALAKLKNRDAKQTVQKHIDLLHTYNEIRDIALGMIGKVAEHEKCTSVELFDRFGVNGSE
T1 sequence (looked up) 2: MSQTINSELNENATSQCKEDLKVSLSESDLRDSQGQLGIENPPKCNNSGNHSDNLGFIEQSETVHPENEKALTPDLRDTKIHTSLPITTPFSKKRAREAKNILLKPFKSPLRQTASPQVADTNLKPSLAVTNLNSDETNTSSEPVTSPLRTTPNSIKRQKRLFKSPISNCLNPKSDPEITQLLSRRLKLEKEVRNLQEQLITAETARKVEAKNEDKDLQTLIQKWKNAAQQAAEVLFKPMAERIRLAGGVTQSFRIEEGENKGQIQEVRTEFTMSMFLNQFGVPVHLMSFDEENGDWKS

[2] = target: T2, Rad51-S2 (Schizosaccharomyces pombe, UniProt P36601 1-365, R324A;K334A); assay: fluorescence anisotropy; 1 mM ATP, 3 mM MgCl2; Hill n 2.25; 30 mM HEPES-KOH pH 7.5, 100 mM KCl, 3 mM MgCl2, 1 mM DTT, 5% glycerol, 1 mM ATP, 25 C (EMSA: 2 mM ATP, 37 C, then 0.2% glutaraldehyde); details: protein: recombinant; label: 5' TAMRA
T2 sequence: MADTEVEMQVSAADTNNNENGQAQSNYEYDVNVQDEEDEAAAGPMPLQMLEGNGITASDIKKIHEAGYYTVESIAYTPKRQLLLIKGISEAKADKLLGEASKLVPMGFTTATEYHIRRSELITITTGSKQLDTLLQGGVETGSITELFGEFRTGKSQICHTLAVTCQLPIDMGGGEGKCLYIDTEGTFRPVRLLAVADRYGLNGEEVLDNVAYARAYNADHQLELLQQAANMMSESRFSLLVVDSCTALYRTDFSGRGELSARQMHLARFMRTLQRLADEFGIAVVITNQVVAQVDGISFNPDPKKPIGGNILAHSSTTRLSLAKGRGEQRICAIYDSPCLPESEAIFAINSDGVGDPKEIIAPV

[3] = target: T3, Rad51-L2 (Schizosaccharomyces pombe, UniProt P36601 1-365, V295A); assay: fluorescence anisotropy; 1 mM ATP, 3 mM MgCl2; Hill n 2.59; 30 mM HEPES-KOH pH 7.5, 100 mM KCl, 3 mM MgCl2, 1 mM DTT, 5% glycerol, 1 mM ATP, 25 C (EMSA: 2 mM ATP, 37 C, then 0.2% glutaraldehyde); details: protein: recombinant; label: 5' TAMRA
T3 sequence: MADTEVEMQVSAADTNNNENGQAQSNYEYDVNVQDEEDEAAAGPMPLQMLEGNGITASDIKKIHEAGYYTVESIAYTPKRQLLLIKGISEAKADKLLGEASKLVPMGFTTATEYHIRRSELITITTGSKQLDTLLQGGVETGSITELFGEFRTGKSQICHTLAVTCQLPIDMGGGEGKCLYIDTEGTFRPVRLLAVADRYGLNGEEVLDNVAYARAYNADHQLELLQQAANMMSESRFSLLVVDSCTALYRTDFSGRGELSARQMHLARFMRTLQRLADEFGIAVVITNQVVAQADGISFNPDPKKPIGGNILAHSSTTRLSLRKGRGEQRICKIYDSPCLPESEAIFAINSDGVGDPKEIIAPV

[4] = target: T4, Rad51 wild-type (Schizosaccharomyces pombe, UniProt P36601 1-365); assay: fluorescence anisotropy; 1 mM ATP, 3 mM MgCl2; Hill n 2.86; 30 mM HEPES-KOH pH 7.5, 100 mM KCl, 3 mM MgCl2, 1 mM DTT, 5% glycerol, 1 mM ATP, 25 C (EMSA: 2 mM ATP, 37 C, then 0.2% glutaraldehyde); details: protein: recombinant; label: 5' TAMRA
T4 sequence: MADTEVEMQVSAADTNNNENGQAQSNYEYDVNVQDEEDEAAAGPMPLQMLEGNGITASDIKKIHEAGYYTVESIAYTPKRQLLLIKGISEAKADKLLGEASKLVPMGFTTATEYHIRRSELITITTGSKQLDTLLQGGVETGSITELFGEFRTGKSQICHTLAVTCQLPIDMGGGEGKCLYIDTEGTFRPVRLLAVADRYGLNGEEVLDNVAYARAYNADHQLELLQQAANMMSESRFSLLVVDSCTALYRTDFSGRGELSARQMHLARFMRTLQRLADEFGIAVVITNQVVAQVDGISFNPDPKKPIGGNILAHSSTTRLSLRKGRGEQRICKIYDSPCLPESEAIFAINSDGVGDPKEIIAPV

[5] = target: T5, Rad51-L1 (Schizosaccharomyces pombe, UniProt P36601 1-365, R257A); assay: fluorescence anisotropy; 1 mM ATP, 3 mM MgCl2; Hill n 2.94; 30 mM HEPES-KOH pH 7.5, 100 mM KCl, 3 mM MgCl2, 1 mM DTT, 5% glycerol, 1 mM ATP, 25 C (EMSA: 2 mM ATP, 37 C, then 0.2% glutaraldehyde); details: protein: recombinant; label: 5' TAMRA
T5 sequence: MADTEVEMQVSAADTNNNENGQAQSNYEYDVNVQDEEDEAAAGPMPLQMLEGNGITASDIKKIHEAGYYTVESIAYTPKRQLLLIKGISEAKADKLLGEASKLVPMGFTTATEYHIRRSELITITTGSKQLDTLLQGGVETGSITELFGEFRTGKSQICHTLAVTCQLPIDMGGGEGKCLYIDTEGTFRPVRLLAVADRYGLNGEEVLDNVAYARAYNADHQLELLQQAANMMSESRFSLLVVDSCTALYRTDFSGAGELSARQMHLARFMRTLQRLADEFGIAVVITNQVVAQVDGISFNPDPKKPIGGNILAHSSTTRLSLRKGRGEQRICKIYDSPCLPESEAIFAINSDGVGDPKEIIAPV

[6] = target: T3, Rad51-L2; assay: FRET; 1 mM ATP; 1.40x B-form; 30 mM HEPES-KOH pH 7.5, 100 mM KCl, 3 mM MgCl2, 1 mM DTT, 5% glycerol, 1 mM ATP, 25 C (EMSA: 2 mM ATP, 37 C, then 0.2% glutaraldehyde); details: protein: recombinant; label: internal fluorescein and ROX
[7] = target: T5, Rad51-L1; assay: FRET; 1 mM ATP; elongation comparable to WT; 30 mM HEPES-KOH pH 7.5, 100 mM KCl, 3 mM MgCl2, 1 mM DTT, 5% glycerol, 1 mM ATP, 25 C (EMSA: 2 mM ATP, 37 C, then 0.2% glutaraldehyde); details: protein: recombinant; label: internal fluorescein and ROX
[8] = target: T2, Rad51-S2; assay: as above; details: protein: recombinant; label: internal fluorescein and ROX
[9] = target: T4, Rad51 wild-type; assay: FRET; 1 mM ATP; ssDNA elongated to 1.45x B-form; 30 mM HEPES-KOH pH 7.5, 100 mM KCl, 3 mM MgCl2, 1 mM DTT, 5% glycerol, 1 mM ATP, 25 C (EMSA: 2 mM ATP, 37 C, then 0.2% glutaraldehyde); details: protein: recombinant; label: internal fluorescein and ROX
[10] = target: T4, Rad51 wild-type; assay: FRET; 1 mM ATP; dsDNA elongated to 1.37x B-form; 30 mM HEPES-KOH pH 7.5, 100 mM KCl, 3 mM MgCl2, 1 mM DTT, 5% glycerol, 1 mM ATP, 25 C (EMSA: 2 mM ATP, 37 C, then 0.2% glutaraldehyde); details: protein: recombinant; label: internal fluorescein and ROX on strand 1; blunt
[11] = target: T3, Rad51-L2; assay: FRET; 1 mM ATP; reduced elongation, 1.28x B-form; 30 mM HEPES-KOH pH 7.5, 100 mM KCl, 3 mM MgCl2, 1 mM DTT, 5% glycerol, 1 mM ATP, 25 C (EMSA: 2 mM ATP, 37 C, then 0.2% glutaraldehyde); details: protein: recombinant; label: internal fluorescein and ROX on strand 1; blunt

B1: wild-type Rad51 from the fission yeast Schizosaccharomyces pombe (natural protein, UniProt P36601 1-365, looked up)
chain: MADTEVEMQVSAADTNNNENGQAQSNYEYDVNVQDEEDEAAAGPMPLQMLEGNGITASDIKKIHEAGYYTVESIAYTPKRQLLLIKGISEAKADKLLGEASKLVPMGFTTATEYHIRRSELITITTGSKQLDTLLQGGVETGSITELFGEFRTGKSQICHTLAVTCQLPIDMGGGEGKCLYIDTEGTFRPVRLLAVADRYGLNGEEVLDNVAYARAYNADHQLELLQQAANMMSESRFSLLVVDSCTALYRTDFSGRGELSARQMHLARFMRTLQRLADEFGIAVVITNQVVAQVDGISFNPDPKKPIGGNILAHSSTTRLSLRKGRGEQRICKIYDSPCLPESEAIFAINSDGVGDPKEIIAPV
notes: Rad51 recombinase, Schizosaccharomyces pombe; No tag is mentioned; purification is by conventional chromatography; also called SpRad51; WT
binding result [1]: binds

B2: Rad51-L1 mutant (R257A in loop 1) (natural protein, Schizosaccharomyces pombe, UniProt P36601 1-365, looked up)
chain: MADTEVEMQVSAADTNNNENGQAQSNYEYDVNVQDEEDEAAAGPMPLQMLEGNGITASDIKKIHEAGYYTVESIAYTPKRQLLLIKGISEAKADKLLGEASKLVPMGFTTATEYHIRRSELITITTGSKQLDTLLQGGVETGSITELFGEFRTGKSQICHTLAVTCQLPIDMGGGEGKCLYIDTEGTFRPVRLLAVADRYGLNGEEVLDNVAYARAYNADHQLELLQQAANMMSESRFSLLVVDSCTALYRTDFSGAGELSARQMHLARFMRTLQRLADEFGIAVVITNQVVAQVDGISFNPDPKKPIGGNILAHSSTTRLSLRKGRGEQRICKIYDSPCLPESEAIFAINSDGVGDPKEIIAPV
notes: Rad51 recombinase, Schizosaccharomyces pombe, with R257A in L1; source: E. coli BL21-Codonplus(DE3) RIPL, purified (as wild-type Rad51, with a HiTrap Blue column instead of HiTrap Heparin)
binding result [1]: binds

B3: Rad51-L2 mutant (V295A in loop 2) (natural protein, Schizosaccharomyces pombe, UniProt P36601 1-365, looked up)
chain: MADTEVEMQVSAADTNNNENGQAQSNYEYDVNVQDEEDEAAAGPMPLQMLEGNGITASDIKKIHEAGYYTVESIAYTPKRQLLLIKGISEAKADKLLGEASKLVPMGFTTATEYHIRRSELITITTGSKQLDTLLQGGVETGSITELFGEFRTGKSQICHTLAVTCQLPIDMGGGEGKCLYIDTEGTFRPVRLLAVADRYGLNGEEVLDNVAYARAYNADHQLELLQQAANMMSESRFSLLVVDSCTALYRTDFSGRGELSARQMHLARFMRTLQRLADEFGIAVVITNQVVAQADGISFNPDPKKPIGGNILAHSSTTRLSLRKGRGEQRICKIYDSPCLPESEAIFAINSDGVGDPKEIIAPV
notes: Rad51 recombinase, Schizosaccharomyces pombe, with V295A in L2; source: E. coli BL21-Codonplus(DE3) RIPL, purified (same procedure as wild-type Rad51)
binding result [1]: binds

B4: Rad51-S2 mutant (R324A and K334A in site II) (natural protein, Schizosaccharomyces pombe, UniProt P36601 1-365, looked up)
chain: MADTEVEMQVSAADTNNNENGQAQSNYEYDVNVQDEEDEAAAGPMPLQMLEGNGITASDIKKIHEAGYYTVESIAYTPKRQLLLIKGISEAKADKLLGEASKLVPMGFTTATEYHIRRSELITITTGSKQLDTLLQGGVETGSITELFGEFRTGKSQICHTLAVTCQLPIDMGGGEGKCLYIDTEGTFRPVRLLAVADRYGLNGEEVLDNVAYARAYNADHQLELLQQAANMMSESRFSLLVVDSCTALYRTDFSGRGELSARQMHLARFMRTLQRLADEFGIAVVITNQVVAQVDGISFNPDPKKPIGGNILAHSSTTRLSLAKGRGEQRICAIYDSPCLPESEAIFAINSDGVGDPKEIIAPV
notes: Rad51 recombinase, Schizosaccharomyces pombe, with R324A and K334A in site II; source: E. coli BL21-Codonplus(DE3) RIPL, purified (same procedure as wild-type Rad51)
binding result [1]: binds

B5: [TAMRA]dT72 (ssDNA)
DNA: TTTTTTTTTTTTTTTTTTTTTTTTTTTTTTTTTTTTTTTTTTTTTTTTTTTTTTTTTTTTTTTTTTTTTTTT
Kd [2]: 895 ± 55 nM
Kd [3]: 308 ± 19 nM
Kd [4]: 358 ± 25 nM
Kd [5]: 664 ± 18 nM

B6: 16(A)(-)_F+R_73 ssDNA (ssDNA)
DNA: AAATGAACATAAAGTAAATAAGTATAAGGATAATACAAAATTAAGTAAATGAATAAACATAGAAAATAAAGTA
modifications: fluorescein-dT at 31; ROX-dT at 42
binding result [6]: binds
binding result [7]: binds
binding result [8]: binds
binding result [9]: binds

B7: 16(A)(-)_F+R_73 bp duplex (dsDNA)
DNA 1: AAATGAACATAAAGTAAATAAGTATAAGGATAATACAAAATTAAGTAAATGAATAAACATAGAAAATAAAGTA
DNA 2: TACTTTATTTTCTATGTTTATTCATTTACTTAATTTTGTATTATCCTTATACTTATTTACTTTATGTTCATTT
modifications: fluorescein-dT at 31 and ROX-dT at 42 of strand 1
binding result [10]: binds
binding result [11]: binds
